One series deals with FGFR2b receptor (Homo sapiens, UniProt P21802). To be noted: relative to wild-type FGF10; cited from earlier work.
Series [1] is described as follows: Stability of Hisx6-FGF10-Myc following freeze/thaw cycles (A280, analytical SEC). It counts as physicochemical. Conditions: after two (multiple) freeze/thaw cycles. How it is done: The stability of this cell penetrating domain of FGF10 was evaluated following multiple freeze/thaw cycles. To do this, protein concentration measurements and analytical size exclusion chromatography were carried out comparing protein which had undergone zero, one, or two freeze/thaw cycles. […] The study indicated about 75% stability of this protein after two freeze/thaw cycles.
Purified protein was subjected to the indicated number of freeze/thaw cycles (each freeze/thaw cycle consisted of snap-freezing the protein in liquid nitrogen, placing it at −80° C. for a minimum of two hours, and then thawing it on ice) and analyzed by size exclusion chromatography. After each thaw, the protein was subjected to 20,000×g centrifugation to remove any precipitation. The protein concentration of each sample was measured by A280, considering the extinction coefficient (24540) and molecular weight (19.57 kDa). In each case 40 μL of the protein was applied to a Superdex 75 10/300 GL column (GE Healthcare). The column running buffer was the same as the protein storage buffer (20 mM Hepes, pH 7.5, 0.5 M NaCl).

For another series, the system named is Hela cells. Kind of series: Cell penetrating activity of FGF10 domain, anti-myc flow cytometry. To be noted: 1 uM, 20 minutes. It counts as cell-based. As for the experimental part: On the day prior to the assay, 10^6 Hela cells were plated in each well of a 6-well plate and incubated in the 37° C. CO2 incubator overnight. The cells were washed once with PBS and then were replenished with 1 mL of serum-free DEMEM (A) or media containing 1 uM of the FGF10 domain construct FGF10-myc (B, C, and D) and were incubated for 20 minutes in the 37° C. CO2 incubator. The cells were then washed three times with ice-cold PBS. For (C) and (D), cells were treated with 0.25% trypsin/EDTA and washed three times with PBS. The cells in (D) were fixed for 10 minutes with 1 mL 4% formaldehyde and permealized for 5 minutes with 0.2% saponin. Then 10 uL of 0.1 mg/mL FITC labeled chicken polyclonal anti-myc tag antibody (Abcam #1394) was added to all the cells and incubated at 4° C. in the dark for 2 hours. The cells were washed three times with ice cold PBS. Cells in (A) and (B) were detached with 1 mL 10 mM EDTA. Cells were analyzed using a BD Accuri™ C6 flow cytometer.
(A flow cytometer gives signals particle by particle.)

A short description of series [2]: Microautoradiography analysis (MARG) of cellular distribution in liver and kidney. The series is classed as in vivo, mice. As for the experimental part: To obtain specific cell-type uptake information in select organs, microautoradiography analysis was performed on selected organs collected at various time points. For microautoradiography analysis (MARG), animals were anesthetized and blood collected, as described above. Tissue samples are trimmed to be approximately 0.5 cm^2, placed into cryosectioning embedding media on a cryosectioning sample holder, and frozen in isopentane that is cooled with liquid nitrogen. Frozen samples were stored in liquid nitrogen until analysis by MARG. For analysis, tissues were cryosectioned at 5 μm under darkroom conditions, and collected onto glass slides that are pre-coated with photographic emulsion (Kodak NTB photographic emulsion). Slides were placed in sealed light-safe slide boxes and allowed to expose the photographic emulsion for 7 days before being developed, fixed and stained with hematoxylin and eosin. All slides were examined for cellular localization using light microscopy.

For series [3] the following is noted: mouse, in vivo.
For series [4] the following is noted: mouse, in vivo, iv.
For another series, the target named is FGFR-1b (Homo sapiens, UniProt P11362). Conditions: cited from earlier work.
The test system of series [5] is HepG2 (hepatoma), Hela cells, SW626 cells (ovarian). Kind of series: Cell penetration of p16 fusion proteins, flow cytometry. It counts as cell-based. To be noted: 2 uM, overnight. How it is done:
On the day prior to the assay, HepG2 (hepatoma), Hela cells, and 10^6 SW626 cells (ovarian) were plated in each well of a 6-well plate and incubated in the 37° C. CO2 incubator. The cells were washed once with PBS and then were replenished with 2 mL of growth media containing 2 uM of p16, +36GFP-p16 or FGF10-p16 proteins and were incubated overnight in the 37° C. CO2 incubator. The cells were then washed once with PBS and detached with 0.25% trypsin/EDTA. The cells were fixed for 10 minutes with 1 mL 4% formaldehyde and permeabilized for 5 minutes with 0.5 mL 0.4% saponin. Then 2.5 uL of 1 mg/mL FITC labeled chicken polyclonal anti-myc tag antibody (Abcam #1394) was added to all the cells and incubated at 4° C. in the dark for 2 hours, except for cells treated with +36GFP-p16 (GFP itself was used for detection). The cells were washed twice with ice cold PBS and were analyzed using a BD Accuri™ C6 flow cytometer.

In series [6] the test system is SKOV-3 ovarian cancer cells. The series is described as follows: SKOV-3 cell viability MTS assay with endosome escape agent. It counts as cell-based, human. Conditions: 1 uM protein, 4 hours, with endosome escape agent (strongest at 13.3 nM). As for the experimental part: SKOV-3 ovarian cancer cells were plated in a 96-well format and grown overnight. Cells were incubated with test articles: a) 1 uM of p16, b) 1 uM of +36GFP-p16, c) 1 uM of FGF10-p16 or d) no treatment in the presence of various concentrations of an endosome escape agent such as PFO (five 3× dilution starting from 40 nM; exemplary endosomal escape agents, such as PFO or PFO-like agents, are disclosed in WO2012/094653) for 4 hours in serum-free medium. One group of cells, called “untreated cells” received no test article treatment and no PFO treatment. After incubation, the media from all cell wells was aspirated and fresh complete medium was added for 3 hours. Cell viability was assessed using an MTS assay. Results are reported as number of viable cells as % relative to the untreated cells.
The CDK4/6 inhibitor PD-0332991 was used as positive control for inhibition of cell proliferation in the p16 deficient SKOV-3 cell line (FIG. 22).
Background: Formazan colour is commonly taken as a measure of viable cells.

Sequence of FGFR2b receptor (P21802 22-822 isoform P21802-3 limits assumed): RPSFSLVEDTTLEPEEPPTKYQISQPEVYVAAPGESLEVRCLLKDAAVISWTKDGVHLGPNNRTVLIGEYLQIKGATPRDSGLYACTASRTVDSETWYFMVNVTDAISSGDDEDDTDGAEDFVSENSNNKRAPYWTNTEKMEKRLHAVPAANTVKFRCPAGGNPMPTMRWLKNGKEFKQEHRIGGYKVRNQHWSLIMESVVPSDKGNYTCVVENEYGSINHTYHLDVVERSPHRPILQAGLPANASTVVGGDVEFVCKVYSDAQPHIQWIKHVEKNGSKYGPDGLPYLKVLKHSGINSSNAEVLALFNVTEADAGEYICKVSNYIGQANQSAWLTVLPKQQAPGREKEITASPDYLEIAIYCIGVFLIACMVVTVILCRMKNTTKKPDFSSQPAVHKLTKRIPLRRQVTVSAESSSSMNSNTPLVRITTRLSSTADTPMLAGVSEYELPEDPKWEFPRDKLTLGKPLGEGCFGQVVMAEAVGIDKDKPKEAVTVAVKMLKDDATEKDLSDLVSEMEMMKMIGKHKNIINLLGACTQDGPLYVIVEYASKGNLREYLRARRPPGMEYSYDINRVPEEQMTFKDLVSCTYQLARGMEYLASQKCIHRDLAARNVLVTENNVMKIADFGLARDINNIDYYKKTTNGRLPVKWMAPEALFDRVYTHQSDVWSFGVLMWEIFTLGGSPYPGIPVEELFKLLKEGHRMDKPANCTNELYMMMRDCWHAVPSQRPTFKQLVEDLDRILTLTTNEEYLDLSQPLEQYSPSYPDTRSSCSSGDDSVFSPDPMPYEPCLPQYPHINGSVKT
Sequence of FGFR-1b (P11362 22-822 isoform P11362-19 limits assumed): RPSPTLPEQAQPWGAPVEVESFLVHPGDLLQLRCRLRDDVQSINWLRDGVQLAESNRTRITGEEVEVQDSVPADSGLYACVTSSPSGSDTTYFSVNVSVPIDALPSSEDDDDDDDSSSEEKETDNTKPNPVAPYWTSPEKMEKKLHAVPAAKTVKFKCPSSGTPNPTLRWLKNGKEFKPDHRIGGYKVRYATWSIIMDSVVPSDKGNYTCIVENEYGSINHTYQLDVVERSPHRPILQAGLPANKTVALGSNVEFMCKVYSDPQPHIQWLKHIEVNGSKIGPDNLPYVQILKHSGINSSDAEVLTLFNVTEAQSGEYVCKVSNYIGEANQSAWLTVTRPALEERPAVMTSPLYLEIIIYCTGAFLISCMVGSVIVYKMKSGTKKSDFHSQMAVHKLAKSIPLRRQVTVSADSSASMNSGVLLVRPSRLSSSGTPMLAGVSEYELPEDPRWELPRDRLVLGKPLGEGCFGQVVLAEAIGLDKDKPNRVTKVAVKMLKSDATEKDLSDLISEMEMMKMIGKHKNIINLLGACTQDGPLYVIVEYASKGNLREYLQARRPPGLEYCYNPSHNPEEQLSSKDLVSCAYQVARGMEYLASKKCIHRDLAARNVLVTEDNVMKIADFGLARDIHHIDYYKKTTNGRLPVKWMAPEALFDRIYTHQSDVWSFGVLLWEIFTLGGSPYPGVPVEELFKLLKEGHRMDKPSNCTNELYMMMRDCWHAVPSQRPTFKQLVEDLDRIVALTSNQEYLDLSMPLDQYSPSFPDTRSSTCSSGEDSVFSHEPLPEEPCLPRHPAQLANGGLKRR

B1: FGF10 E158K/K195A: FGF-10 variant or fragment having two substitutions E158K/K195A (protein)
chain: GRHVRSYNHLQGDVRWRKLFSFTKYFLKIEKNGKVSGTKKENCPYSILEITSVEIGVVAVKAINSNYYLAMNKKGKLYGSKEFNNDCKLKERIEKNGYNTYASFNWQHNGRQMYVALNGKGAPRRGQKTRRANTSAHFLPMVVHS
As to B1, the “decrease in binding to the FGFR2b receptor (factor / fold)” value with FGFR2b receptor is given as “approximately 4”.

B2: FGF10 R78A: FGF-10 variant or fragment having one substitution R78A (protein)
chain: GRHVRSYNHLQGDVAWRKLFSFTKYFLKIEKNGKVSGTKKENCPYSILEITSVEIGVVAVKAINSNYYLAMNKKGKLYGSKEFNNDCKLKERIEENGYNTYASFNWQHNGRQMYVALNGKGAPRRGQKTRRKNTSAHFLPMVVHS
Take B2: the “decrease in binding to the FGFR2b receptor (factor / fold)” value with FGFR2b receptor is “approximately 4”.

B3: FGF10: Hisx6- and Myc-tagged domain of human FGF10 with the amino acid sequence of SEQ ID NO: 2 (protein, listed as Homo sapiens)
chain: GRHVRSYNHLQGDVRWRKLFSFTKYFLKIEKNGKVSGTKKENCPYSILEITSVEIGVVAVKAINSNYYLAMNKKGKLYGSKEFNNDCKLKERIEENGYNTYASFNWQHNGRQMYVALNGKGAPRRGQKTRRKNTSAHFLPMVVHS
modifications: His6 and Myc tags
As to B3, the “stability after freeze/thaw cycles” value in series [1] (listed as His6-FGF10-myc) is on record as 75%. Besides, in series [1] (listed as Hisx6-FGF10-Myc), the “stability after freeze/thaw cycles” value is on record as “about 75%”. Moreover, the “cells with protein present on the cell membrane” value with Hela cells (no trypsin) was 98.8%. In the series on Hela cells (trypsin, fixed and permeabilized), the “cells stained positive after trypsin treatment (internalized protein)” value is “almost all the cells stained positive”. Also, in series [2] (kidney), the “cellular distribution in kidney (MARG)” value is recorded as “uniformly distributed throughout the kidney”. In series [2] (liver), the “cellular distribution in liver (MARG)” value is “uniformly distributed throughout the liver tissue including in hepatocytes”. Also, in [3], the “partitioning between plasma compartment and blood cell compartment” value is on record as “favor the plasma compartment over the blood cell compartment”; the “plasma concentration compared with Tat-TK or +36GFP” value is recorded as “higher concentrations in plasma 1 hour post-injection than Tat-TK or +36GFP”. The “travel beyond the injection site” value in series [4] is on record as “able to travel significantly beyond the area of the injection site”.

B4: Fibroblast growth factor 10 (FGF-10): native FGF family member, ligand of FGFR-2b (protein, UniProt O15520 38-208, looked up)
Fibroblast growth factor 10: QALGQDMVSPEATNSSSSSFSSPSSAGRHVRSYNHLQGDVRWRKLFSFTKYFLKIEKNGKVSGTKKENCPYSILEITSVEIGVVAVKAINSNYYLAMNKKGKLYGSKEFNNDCKLKERIEENGYNTYASFNWQHNGRQMYVALNGKGAPRRGQKTRRKNTSAHFLPMVVHS
B4: the “binding affinity to FGFR-1b as % of binding affinity to FGFR-2b” value in the series with FGFR-1b is reported as “about 10%”.

B5: p16: human p16Ink4A tumor suppressor protein without penetrating polypeptide (protein, listed as Homo sapiens)
chain: MEPAAGSSMEPSADWLATAAARGRVEEVRALLEAGALPNAPNSYGRRPIQVMMMGSARVAELLLLHGAEPNCADPATLTRPVHDAAREGFLDTLVVLHRAGARLDVRDAWGRLPVDLAEELGHRDVARYLRAAAGGTRGSNHARIDAAEGPSDIPD
On to B5, for which the cell penetration entry in [5] is given as “does not”. The “number of viable cells / cell proliferation” value in series [6] was “failed to block cell proliferation at levels higher than the background toxicity of an endosomal escape agent”.

B6: FGF10-p16: fusion protein of FGF10 domain (SEQ ID NO: 2), (G4S)2 linker and human p16 (protein)
chain: MEQKLISEEDLGSGRHVRSYNHLQGDVRWRKLFSFTKYFLKIEKNGKVSGTKKENCPYSILEITSVEIGVVAVKAINSNYYLAMNKKGKLYGSKEFNNDCKLKERIEENGYNTYASFNWQHNGRQMYVALNGKGAPRRGQKTRRKNTSAHFLPMVVHSGHGGGGSGGGGSMEPAAGSSMEPSADWLATAAARGRVEEVRALLEAGALPNAPNSYGRRPIQVMMMGSARVAELLLLHGAEPNCADPATLTRPVHDAAREGFLDTLVVLHRAGARLDVRDAWGRLPVDLAEELGHRDVARYLRAAAGGTRGSNHARIDAAEGPSDIPDGHGHHHHHH
B6: in series [5] (trypsin detached), the “treated cells stained positive” value is approximately 30%. Moreover, the “number of viable cells / cell proliferation” value in series [6] was “significant reduction in the number of viable cells”.
